From US20170166895 come the findings set out here.

The series has as its target Complement component 3 (C3) (Homo sapiens) (UniProt P01024+P01024). Kind of series: filter. As to conditions: 3'-3' idT.
Where [1] appears, read: all U in listing = NapdU, SB18T0.01, 37C.

Complement component 3 (C3) (Homo sapiens), sequence (P01024 23-667, chain 1 of 2): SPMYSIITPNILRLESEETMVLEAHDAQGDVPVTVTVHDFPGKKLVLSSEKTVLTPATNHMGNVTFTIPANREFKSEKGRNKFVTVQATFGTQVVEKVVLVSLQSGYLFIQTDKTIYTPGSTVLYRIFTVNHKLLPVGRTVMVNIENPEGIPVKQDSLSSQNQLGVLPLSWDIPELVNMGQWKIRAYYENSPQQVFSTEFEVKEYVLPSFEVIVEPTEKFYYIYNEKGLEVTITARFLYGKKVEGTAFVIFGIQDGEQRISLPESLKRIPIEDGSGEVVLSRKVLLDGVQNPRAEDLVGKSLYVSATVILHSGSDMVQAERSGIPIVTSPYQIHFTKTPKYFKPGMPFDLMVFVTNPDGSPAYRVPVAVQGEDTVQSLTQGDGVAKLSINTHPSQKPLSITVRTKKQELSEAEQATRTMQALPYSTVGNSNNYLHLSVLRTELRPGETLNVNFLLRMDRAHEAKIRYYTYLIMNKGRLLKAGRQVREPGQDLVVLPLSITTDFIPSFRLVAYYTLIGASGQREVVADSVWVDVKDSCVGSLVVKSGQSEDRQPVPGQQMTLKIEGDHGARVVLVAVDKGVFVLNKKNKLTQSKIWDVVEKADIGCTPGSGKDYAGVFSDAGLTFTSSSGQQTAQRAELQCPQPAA
Complement component 3 (C3) (Homo sapiens), sequence (P01024 672-1663, chain 2 of 2): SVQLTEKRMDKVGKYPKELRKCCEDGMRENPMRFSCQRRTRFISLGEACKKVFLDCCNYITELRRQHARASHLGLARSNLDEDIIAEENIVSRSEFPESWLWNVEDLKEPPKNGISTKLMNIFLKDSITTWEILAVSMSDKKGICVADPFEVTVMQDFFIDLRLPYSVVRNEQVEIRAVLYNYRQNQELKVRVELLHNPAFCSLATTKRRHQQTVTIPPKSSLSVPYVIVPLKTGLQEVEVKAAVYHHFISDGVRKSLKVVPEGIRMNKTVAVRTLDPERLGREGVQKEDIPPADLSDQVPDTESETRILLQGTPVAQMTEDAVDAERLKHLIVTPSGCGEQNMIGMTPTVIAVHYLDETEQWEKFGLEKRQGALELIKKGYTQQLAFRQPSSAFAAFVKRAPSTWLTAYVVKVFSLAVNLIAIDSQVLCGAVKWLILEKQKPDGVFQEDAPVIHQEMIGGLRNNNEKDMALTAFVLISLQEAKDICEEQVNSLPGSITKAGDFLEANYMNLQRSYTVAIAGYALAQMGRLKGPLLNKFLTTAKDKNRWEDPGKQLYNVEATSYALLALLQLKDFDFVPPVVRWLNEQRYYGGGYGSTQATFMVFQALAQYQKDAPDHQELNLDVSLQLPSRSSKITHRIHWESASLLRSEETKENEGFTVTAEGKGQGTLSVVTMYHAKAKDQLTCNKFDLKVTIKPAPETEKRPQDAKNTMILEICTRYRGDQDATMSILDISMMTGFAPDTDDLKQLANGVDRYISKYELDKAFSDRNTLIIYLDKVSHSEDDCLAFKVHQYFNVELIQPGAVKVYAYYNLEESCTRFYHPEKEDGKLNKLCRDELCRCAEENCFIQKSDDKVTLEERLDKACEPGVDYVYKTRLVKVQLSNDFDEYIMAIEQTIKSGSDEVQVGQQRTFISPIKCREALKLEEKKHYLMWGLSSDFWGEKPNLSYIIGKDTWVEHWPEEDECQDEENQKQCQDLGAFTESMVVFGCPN

On to “CGGUGACUCAAUAGUCCGUACGUUCCCG [8491-94_77]”, for which, for the setting “P = NapdU (all U), 2'-OMe P19, SB18T0.01, 5 mM MgCl2, 37 C”, the Kd (as a rule, the concentration at which binding is half-saturated) is 0.0262 nM.

In turn, CGGUGAUCAAUAGUCGUACGUUCCG [8491-94_102] returned a Kd (all U = NapdU, 2'-OMe at 1,2,3,5,10,13,26,27,28, C3-spacer replaces C7, C17, C25, SB18T0.01, 37C) of 0.0603 nM. For “CGGUGACUCAAUAGUCCGUACGUUCCCG [8491-94_89]”, under “all U = NapdU, 2'-OMe at 1,3,5,7,10,13,28, SB18T0.01, 37C”, the Kd was found to be 0.0173 nM. For the sequence “UGGUGACUCAAUAGUCGUACGUUCCCA [8491-94_137]”, under “all P = NapdU, U1 = 2'-OMe-U, 2'-OMe at 1,2,3,5,7,9,10,13,19,20,22-28, C3-spacer replaces C17, SB18T0.01, 37C”, the Kd worked out at 0.119 nM.

For the sequence “CGGUGACUCAAUAGUCCGUACGUUCCCG [8491-94_61]”, the Kd (P = NapdU (all U), 2'-OMe G3, SB18T0.01, 5 mM MgCl2, 37 C) was 0.0237 nM. Take “TGGUGACUCAAUAGUCGUACGUUCCCA [8491-94_129]”: where the note is “all P = NapdU, T1 = dT, 2'-OMe at 2,3,5,7,9,10,13,19,20,22-28, C3-spacer replaces C17, SB18T0.01, 37C”, the Kd was determined as 0.0179 nM. “CCGGUGACUCAAUAUCCGUACGUUCCCGG [8491-94_41]” returned a Kd (all U = NapdU, C3-spacer replaces G15, SB18T0.01, 37C) of 0.598 nM.

Take “CGGUGACUCAAUAGUCCGUACGUUCCCG [8491-94_96]”: the Kd (all U = NapdU, 2'-OMe at 1,2,3,5,7,9,10,13,19,20,23-28, SB18T0.01, 37C) was found to be 0.0364 nM. In turn, CGGUGAUCAAUAGUCGUACGUUCCG [8491-94_100] registered a dissociation constant (Kd) (all U = NapdU, 2'-OMe at 1,2,3,5,9,10,13,19,20,22,23,24,26,27,28, C3-spacer replaces C7, C17, C25, SB18T0.01, 37C) of 0.0794 nM.

For “CGGUGACUCAAUAGUCCGUACGUUCCCG [8491-94_95]”, the Kd (all U = NapdU, 2'-OMe at 1,2,3,5,7,10,13,19,20,23-28, SB18T0.01, 37C) stood at 0.0357 nM. With “CCGGUGACUCAAUAGUCCGUACGUUCCCG [8491-94_52]”, the Kd (all U = NapdU, C3-spacer replaces G30, SB18T0.01, 37C) is 0.0504 nM. Consider “CGGUGACUCAAUAGUCCGUACGUUCCCG [8491-94_93]”, for which the Kd (all U = NapdU, 2'-OMe at 1,2,3,5,7,10,13,19,23,24,26,27,28, SB18T0.01, 37C) was determined as 0.0152 nM.

“CCGGUGAUCAAUAGUCCGUACGUUCCCGG [8491-94_36]” came in with a Kd (all U = NapdU, C3-spacer replaces C8, SB18T0.01, 37C) of 0.0315 nM. Turning to “CGGUGACUCAAUAGUCCGUACGUUCCCG [8491-94_74]”, the Kd (P = NapdU (all U), 2'-OMe C16, SB18T0.01, 5 mM MgCl2, 37 C) was determined as 0.192 nM. Consider “CGGUGACUCAAUAGUCCGUACGUUCCCG [8491-94_80]”, for which the Kd (P = NapdU (all U), 2'-OMe G22, SB18T0.01, 5 mM MgCl2, 37 C) came out at 0.0678 nM. For “CGGUGACUCAAUAGUCCGUACGUUCCCGGUCCGAACGCGGAGGA [8491-94_9]”, where the note is “all U = NapdU, SB18T0.01, 37C”, the Kd came out at 0.243 nM. Regarding “CGGUGACUCAAUAGUCCGUACGUUCCCG [8491-94_64]”, for the setting “all U = NapdU, 2'-OMe at A6, SB18T0.01, 37C”, the Kd was determined as 0.512 nM. Under setting [1], “ACTCCAUGUCGGCGUUUGGCUCAAUAGUCCGUACGUUUUACGCGUGAGGA [8491-389_3]” registered a Kd of 0.0295 nM. Turning to “GGGUGACUCAAUAGUCGUACAUUCCCC [8491-94_136]”, the Kd (all P = NapdU, 2'-OMe at 1,2,3,5,7,9,10,13,19,20,22-28, C3-spacer replaces C17, SB18T0.01, 37C) is 9.1 nM. In turn, “CGGUGACUCAAUAGUCCGUACGUUCCCG [8491-94_63]” registered a Kd (P = NapdU (all U), 2'-OMe G5, SB18T0.01, 5 mM MgCl2, 37 C) of 0.0268 nM.

Regarding “CGGUGACUCAAUAGUCCGUACGUUCCCG [8491-94_83]”, where the note is “P = NapdU (all U), 2'-OMe C25, SB18T0.01, 5 mM MgCl2, 37 C”, the Kd was determined as 0.0488 nM. Consider “CCGGUGACUCAAUAGUCCGUCGUUCCCGG [8491-94_45]”, for which the Kd (all U = NapdU, C3-spacer replaces A21, SB18T0.01, 37C) was found to be 228 nM. With “CCGGUGACUCAAUGUCCGUACGUUCCCGG [8491-94_40]”, where the note is “all U = NapdU, C3-spacer replaces A14, SB18T0.01, 37C”, the Kd was 1.99 nM. Regarding “CGGUGACUCAAUAGUCCGUACGUUCCCG [8491-94_66]”, the Kd (all U = NapdU, 2'-OMe at NapdU8, SB18T0.01, 37C) was found to be 0.149 nM. Turning to “CCGGUGACUAAUAGUCCGUACGUUCCCGG [8491-94_37]”, the Kd (all U = NapdU, C3-spacer replaces C10, SB18T0.01, 37C) was determined as 0.0922 nM. For “ACTCCGAGCAUUGACUCAAUAGUCCGUACGUUUUACGCGUGAGGA [8491-407_3]”, under setting [1], the Kd turned out to be 0.208 nM. “ACTCCGAGCAUUGACUCAAUAGUCCGUACGUUUUUUUGGGCCGGGGGGGCAGGAGGA [8491-403_3]” gave a Kd (all U in listing = NapdU, printed as 1.53-10, SB18T0.01, 37C) of 0.153 nM. Sequence “ACTCCUUGACUCGAUAGUCCGUACGUUUGCGGAAUACCAGCUGACGAGGA [8491-400_3]” had a Kd under setting [1] of 1.2 nM. Under “all U = NapdU, 2'-OMe at 1,2,3,5,7,9,10,13,20,22,25-28, SB18T0.01, 37C”, “CGGUGACUCAAUAGUCCGUACGUUCCCG [8491-94_101]” displayed a Kd of 0.219 nM.

For “CGGUGACUCAAUAGUCCGUACGUUCCCGG [8491-94_31]”, the Kd (all U = NapdU, C3-spacer replaces C2, SB18T0.01, 37C) came to 0.14 nM. Consider “UGGUGACUCAAUAGUCCGUACAUUCCCA [8491-94_139]”, for which the Kd (all P = NapdU, U1 = 2'-OMe-U, 2'-OMe at 1,2,3,5,7,9,10,13,19,20,22-28, SB18T0.01, 37C) amounted to 26.7 nM. With “CCGGUGACUCAAUAGUCCGUACGUUCCGG [8491-94_49]”, where the note is “all U = NapdU, C3-spacer replaces C27, SB18T0.01, 37C”, the Kd worked out at 0.266 nM. In the case of “ACTCCACGGUGACUCCAUAGUCCGUACGUUCCCGCGGACGCACCGAGGA [8491-388_3]”, under setting [1], the Kd was 0.71 nM. For “CCGGUGACUCAUAGUCCGUACGUUCCCGG [8491-94_39]”, for the setting “all U = NapdU, C3-spacer replaces A12, SB18T0.01, 37C”, the Kd amounted to 0.31 nM. Sequence “ACTCCUACGGUUGGCUCCAUAGUCAGUACGUUUACGAUACCCCGAGGA [8491-282_3]” gave a Kd under setting [1] of 0.27 nM.

Consider “ACTCCUACAAAGCGAUUGGCUCGAUAGUCAGUACGUUUCUCGCUCGAGGA [8491-390_3]”, for which, under setting [1], the Kd is 0.412 nM.

Under setting [1], “ACTCCGAGCAUUGACUCAAUAGUCCGUACGUUUGGCCCGUUCACAAGGAGGA [8491-393_3]” yielded a Kd of 0.25 nM. In turn, “ACTCCGAGCAUUGACUCAAUAGUCCGUACGUUCCCGGUCUGAACGUGGAGGA [8491-406_3]” registered a Kd under setting [1] of 2.47 nM. Turning to “ACTCCAGCAACUUGACUCAAUAGUCCGUACGUUUAUGCGAGAACAGAGGA [8491-386_3]”, the Kd under setting [1] worked out at 0.104 nM. “CCGGUGACUCAUAGUCCGUACGUUCCCGG [8491-94_38]” returned an equilibrium dissociation constant (Kd) (all U = NapdU, C3-spacer replaces A11, SB18T0.01, 37C) of 0.148 nM. Turning to “CGGUGACUCAAUAGUCCGUACGUUCCCG [8491-94_72]”, the Kd (all U = NapdU, 2'-OMe at G14, SB18T0.01, 37C) stood at 6.17 nM.

Where the note is “all U in listing = NapdU, SB18T0.01 (5 mM MgCl2), 37C”, “ACTCCGAGCAUUGACUCAAUAGUCCGUACGUUUGGCCGGGCAGGGGAGGA [8491-3_3]” gave a Kd of 0.119 nM. For the sequence “ACTCCCCGGUGACUCAAUAGUCCGUACGUUCCCGGUCCGAA [8491-94_6]”, where the note is “all U = NapdU, SB18T0.01, 37C”, the Kd was found to be 0.019 nM. The sequence “ACTCCGUCUGGCUAACUUAGUCCGUACGUUCGUGAGCGUGAUUAUGAGGA [8491-397_3]” displayed a Kd under setting [1] of 3.11 nM. “ACTCCCAAGCCUCUCGGUUUGGCUAAAUAGUCCGUACGUUUUCACGAGGA [8491-408_3]” displayed a Kd under setting [1] of 0.161 nM. Take “CCGGUGACUCAAUAGUCCGUACGUUCCC [8491-94_28]”: the Kd (all U = NapdU, printed as 2.65-10, SB18T0.01, 37C) came to 0.265 nM.

“ACTCCCCGGUGACUCAAUAGUCCGUACGUUCCCGGUCC [8491-94_7]” returned a Kd (all U = NapdU, SB18T0.01, 37C) of 0.0194 nM. “ACTCCCCGGUGACUCAAUAGUCCGUACGUUUGGCCGGGCAGGGGAGGA [8491-395_3]” gave a Kd under setting [1] of 3.52 nM. The sequence “ACTCCCCGGUGACUCAAUAGUCCGUACGUUCCCGG [8491-94_19]” yielded a Kd (all U = NapdU, SB18T0.01, 37C) of 0.0559 nM. For the setting “all U = NapdU, 2'-OMe at 1,2,3,5,7,10,13,19,23-28, SB18T0.01, 37C”, “CGGUGACUCAAUAGUCCGUACGUUCCCG [8491-94_94]” returned a Kd of 0.0557 nM. In turn, “CGGUGACUCAAUAGUCCGUACGUUCCCG [8491-94_81]” yielded a Kd (P = NapdU (all U), 2'-OMe P23, SB18T0.01, 5 mM MgCl2, 37 C) of 0.0243 nM. Regarding “CCGGUGACUCAAUAGUCCGUACGUUCCGG [8491-94_48]”, the Kd (all U = NapdU, C3-spacer replaces C26, SB18T0.01, 37C) was 0.0302 nM.

Regarding “CCGUGACUCAAUAGUCCGUACGUUCCCGG [8491-94_33]”, the Kd (all U = NapdU, C3-spacer replaces G4, SB18T0.01, 37C) amounted to 0.245 nM. For the sequence “CCGGUACUCAAUAGUCCGUACGUUCCCGG [8491-94_34]”, the Kd (all U = NapdU, C3-spacer replaces G6, SB18T0.01, 37C) is 14.1 nM. With “CGGUGACUCAAUAGUCCGUACGUUCCCG [8491-94_71]”, the Kd (P = NapdU (all U), 2'-OMe A13, SB18T0.01, 5 mM MgCl2, 37 C) came out at 0.0256 nM.

“ACTCCAUGUCGGCGUUUGACUCAAUAGUCCGUACGUUUGGCCGGGCAGGGGAGGA [8491-405_3]” had a Kd under setting [1] of 0.159 nM.

Sequence “CGGUGACUCAAUAGUCCGUACGUUCCCGG [8491-94_30]” yielded a Kd (all U = NapdU, C3-spacer replaces C1, SB18T0.01, 37C) of 0.0622 nM.

In turn, “GGGUGACUCAAUAGUCCGUACGUUCCCC [8491-94_127]” came in with a Kd (all U = NapdU, 2'-OMe at 1,2,3,5,7,9,10,13,19,20,22-28, SB18T0.01, 37C) of 0.045 nM.
